Laboratory results as given in patent US7820375 (INSTITUT NATIONAL DE LA SANTE ET DE LA RECHERCHE MEDICALE …, dated 2010).

T1: LexA-CRMP5 (complete human CRMP 5 protein fused to LexA, bait) (human, UniProt P0A7C2 1-202; Q9BPU6 1-564)
T1 sequence (looked up): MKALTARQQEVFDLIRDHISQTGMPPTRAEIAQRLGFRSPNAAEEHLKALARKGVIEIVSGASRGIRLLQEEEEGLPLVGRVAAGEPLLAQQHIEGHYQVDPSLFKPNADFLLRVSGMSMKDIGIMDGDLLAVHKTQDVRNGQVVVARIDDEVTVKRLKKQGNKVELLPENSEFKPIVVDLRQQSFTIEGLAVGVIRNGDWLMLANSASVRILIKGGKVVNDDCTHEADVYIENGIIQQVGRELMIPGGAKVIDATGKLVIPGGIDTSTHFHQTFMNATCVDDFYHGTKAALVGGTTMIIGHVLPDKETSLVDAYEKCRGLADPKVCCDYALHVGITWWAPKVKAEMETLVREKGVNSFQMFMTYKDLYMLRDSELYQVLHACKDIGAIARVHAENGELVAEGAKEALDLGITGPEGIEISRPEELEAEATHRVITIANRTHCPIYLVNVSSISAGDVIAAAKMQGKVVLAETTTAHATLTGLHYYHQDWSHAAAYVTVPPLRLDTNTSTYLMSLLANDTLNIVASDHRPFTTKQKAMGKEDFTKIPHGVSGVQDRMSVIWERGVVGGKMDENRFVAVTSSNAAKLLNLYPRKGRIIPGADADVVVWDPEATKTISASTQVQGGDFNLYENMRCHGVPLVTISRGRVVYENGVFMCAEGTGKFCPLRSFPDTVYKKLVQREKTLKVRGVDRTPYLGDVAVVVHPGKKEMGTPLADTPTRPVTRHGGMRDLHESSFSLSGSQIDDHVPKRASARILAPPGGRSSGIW

B1: LexA (bait vector without insert) (other)
chain: MKALTARQQEVFDLIRDHISQTGMPPTRAEIAQRLGFRSPNAAEEHLKALARKGVIEIVSGASRGIRLLQEEEEGLPLVGRVAAGEPLLAQQHIEGHYQVDPSLFKPNADFLLRVSGMSMKDIGIMDGDLLAVHKTQDVRNGQVVVARIDDEVTVKRLKKQGNKVELLPENSEFKPIVVDLRQQSFTIEGLAVGVIRNGDWL
notes: range 1-202
B2: Act-CRMP5 (complete human CRMP 5 protein fused to NLS-B42-HA, prey) (other, UniProt Q9BPU6 1-564, looked up, not shown: large carriers)
chain: MLANSASVRILIKGGKVVNDDCTHEADVYIENGIIQQVGRELMIPGGAKVIDATGKLVIPGGIDTSTHFHQTFMNATCVDDFYHGTKAALVGGTTMIIGHVLPDKETSLVDAYEKCRGLADPKVCCDYALHVGITWWAPKVKAEMETLVREKGVNSFQMFMTYKDLYMLRDSELYQVLHACKDIGAIARVHAENGELVAEGAKEALDLGITGPEGIEISRPEELEAEATHRVITIANRTHCPIYLVNVSSISAGDVIAAAKMQGKVVLAETTTAHATLTGLHYYHQDWSHAAAYVTVPPLRLDTNTSTYLMSLLANDTLNIVASDHRPFTTKQKAMGKEDFTKIPHGVSGVQDRMSVIWERGVVGGKMDENRFVAVTSSNAAKLLNLYPRKGRIIPGADADVVVWDPEATKTISASTQVQGGDFNLYENMRCHGVPLVTISRGRVVYENGVFMCAEGTGKFCPLRSFPDTVYKKLVQREKTLKVRGVDRTPYLGDVAVVVHPGKKEMGTPLADTPTRPVTRHGGMRDLHESSFSLSGSQIDDHVPKRASARILAPPGGRSSGIW

Experiments:
[1] = biological target: B2; experiment: yeast two-hybrid by conjugation, lacZ reporter (X-gal)
[2] = biological target: T1, LexA-CRMP5 (complete human CRMP 5 …); experiment: yeast two-hybrid by conjugation, LexA bait and Act prey, lacZ reporter (X-gal)

Binder | binding result [1] | binding result [2]
B1 | no binding | 
B2 |  | binds
